In data set [1] the target is T1, Fur (ferric uptake regulator) (Staphylococcus aureus) (UniProt A0A0H2XGT2).
T1 sequence: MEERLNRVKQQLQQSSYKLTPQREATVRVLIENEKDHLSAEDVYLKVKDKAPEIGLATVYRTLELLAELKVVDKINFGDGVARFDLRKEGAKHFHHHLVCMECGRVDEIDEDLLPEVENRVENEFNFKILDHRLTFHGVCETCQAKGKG
Kind of data set: EMSA. Background: A gel shift assay detects complexes by their altered migration in electrophoresis.

Data set [2] addresses T2, purified S. aureus Fur (S. aureus) (UniProt P0A032).
T2 sequence: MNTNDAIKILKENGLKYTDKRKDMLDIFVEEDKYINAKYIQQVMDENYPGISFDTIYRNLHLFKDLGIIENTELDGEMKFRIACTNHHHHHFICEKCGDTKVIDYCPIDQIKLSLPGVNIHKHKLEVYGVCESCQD

With “CTTTAGTAAAATCATAAATAATAATGATTATCATTGTCAATATTTATTTTATAATCAATTTATTATTGTTATACGAAAATAGATGTGCTAGTATAATTGATAACCATTATCAATTGCAATGGTTAATC (double strand) [isdC operator (two Fur boxes), 128 bp PCR product]”, the binding result in data set [1] is on record as “binds”.

B1: purified S. aureus Fpa (natural protein)
chain: MAKQATMKNAALKQLTKDADEILHLIKVQLDNLTLPSCPLYEEVLDTQMFGLQKEVDFAVKLGLVDREDGKQIMLRLEKELSKLHEAFTLV
For B1, in data set [2], the EMSA: association of Fur (40 µM) with isdC operator DNA, Fpa titrated in (0-40 µM by the legend, 0-80 µM by the methods), with 100 µM MnCl2 is 20 µM.
